Values of other authors, collected in publication PMC3686494.

Target: AgCad1 (cadherin) CR9-11 (Anopheles gambiae)
Assay: one-site saturation binding

Cry4Ba (from UniProt P05519)
Kd: 13 nM
